# T1: FbRAD1/ISFba1 (RHS75625.1) (Firmicutes bacterium AM43-11BH)
# T1 chain: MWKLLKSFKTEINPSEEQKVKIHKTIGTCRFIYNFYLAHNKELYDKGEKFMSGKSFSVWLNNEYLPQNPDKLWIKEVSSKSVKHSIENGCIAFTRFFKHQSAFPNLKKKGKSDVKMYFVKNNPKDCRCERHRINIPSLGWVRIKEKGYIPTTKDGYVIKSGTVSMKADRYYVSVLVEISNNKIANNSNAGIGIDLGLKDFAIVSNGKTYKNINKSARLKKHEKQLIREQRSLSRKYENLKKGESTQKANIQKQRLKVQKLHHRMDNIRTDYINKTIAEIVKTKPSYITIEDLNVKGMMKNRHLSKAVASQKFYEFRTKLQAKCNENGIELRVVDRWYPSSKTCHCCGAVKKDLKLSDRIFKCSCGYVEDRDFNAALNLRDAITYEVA
# B1: FbRAD1 RAGATH-18-associated RNA (ssRNA)
# RNA: CUAAAACGCAAACGUAAGUAUGUACCGAAGGCUAUUUUCGGGAAUUUACGACUAUGGAGUGUACAAGAACUUGUGAGUAGAUAUGAUUUCGGUCAAUCCAAAGCAUACACGAUGAAAUAGUAAGUAAUGUUCGUGAGAACUUACAUUAUCUCGAUGUGAGCAUAUUUAAUCACAUUUUGAGUGGCAG
# Target: T1, FbRAD1/ISFba1 (RHS75625.1)
# Assay: co-purified RNA, degraded by RNase not DNase; about 180 nt; RNA-seq
# Details: tags: GST (cleaved by PreScission), C-terminal 6His per expression cassette; stem loop, long hairpin with inner loop and pseudoknot (predicted)
binder,measurement,value
B1,binding result,binds

# Source: US20260209761, “RNA-GUIDED ENDONUCLEASE SYSTEM AND USE THEREOF IN GENE EDITING” (HARBIN INSTITUTE OF TECHNOLOGY, published 2026)
